Assay results published in patent US20200199244A1 (published 2020).
Residue numbers refer to the chain shown, from its start. “And” between values parts separate entries of the source, which are not always exact repeats. Equal entries are not always repeated.

Columns and labels:
[1] = target: human CD40 on RAMOS human B cells (human, UniProt P25942 21-277); assay: cell-based or functional assay
[2] = target: T1, human CD40 expressed on stably transfected CHO-DG44 cells (human, UniProt P25942 21-277); assay: CHO-CD40 cell RBA, competition with IZ-CD40L (FMAT)
T1 construct: Cell-surface human CD40 in the CHO cell RBA; also called CHO-CD40; human CD40 CHO cells

[3] = target: T2, human CD40 (BMS, CY24FEB06-01) (human, UniProt P25942 21-193); assay: ELISA RBA, competition with IZ-CD40L for soluble human CD40;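 note: Neutravidin-coated 384-well plates, dAb–human CD40 complex incubated 2 h at room temperature, read-out as absorbance at 450 nm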
T2 construct: Soluble human CD40 reagent of the ELISA RBA

[4] = target: T3, human CD40 (W109L, L121P) Fc fusion (human, UniProt P25942 21-193); assay: SPR, ProteOn XPR36; CD40-Fc captured, dAb analyte
T3 construct: Same construct as wt-hCD40 with W109L and L121P; also called hCD40-M4; hCD40 M4 (W109L, L121P); not shown: human IgG1 Fc

[5] = target: T4, human CD40 (H76R, W109L, L121P) Fc fusion (human); assay: SPR, ProteOn XPR36; CD40-Fc captured, dAb analyte
T4 construct: Same construct as wt-hCD40 with H76R, W109L and L121P; also called hCD40-M5; hCD40-M5 (H76R, W109L, L121P); not shown: human IgG1 Fc
T4 chain: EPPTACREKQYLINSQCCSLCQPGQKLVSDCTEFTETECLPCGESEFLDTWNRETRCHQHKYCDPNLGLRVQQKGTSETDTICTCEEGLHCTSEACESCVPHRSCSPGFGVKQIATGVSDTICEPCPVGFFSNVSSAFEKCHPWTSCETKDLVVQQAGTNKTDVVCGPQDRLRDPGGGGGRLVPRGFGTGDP

[6] = target: T5, wild type cynomolgus monkey CD40 Fc fusion (cynomolgus monkey (Macaca …)); assay: SPR, ProteOn XPR36; CD40-Fc captured, dAb analyte
T5 construct: also called wt-cCD40; wt-cyno-CD40; not shown: human IgG1 Fc
T5 chain: T4 chain with A95S, S106L, H142R, L172Q

[7] = target: T6, wild type human CD40 Fc fusion (human, UniProt P25942 21-193); assay: SPR (ProteOn XPR36), dAb over CD40-Fc captured by anti-human IgG(Fc)
T6 construct: also called wt-hCD40

[8] = target: T7, human CD40 (H76R) Fc fusion (human, UniProt P25942 21-193); assay: as above
T7 construct: Built as wt-hCD40 with the printed substitution; also called hCD40-M1; hCD40 M1 (H76R)

[9] = target: T8, human CD40 (W109R) Fc fusion (Chimpanzee CD40) (human, UniProt P25942 21-193); assay: SPR ProteOn XPR36;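 note: surface plasmon resonance with CD40-Fc fusions captured through their Fc on an anti-human IgG chip, sensorgrams reference-subtracted against surfaces lacking CD40-Fc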
T8 construct: As m1 with W109R (residue of chimpanzee CD40); also called hCD40-M3; not shown: human IgG1 Fc

[10] = target: T9, human CD40 (W109L, L121P) Fc fusion (human, UniProt P25942 21-193); assay: SPR ProteOn XPR36;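 note: surface plasmon resonance with CD40-Fc fusions captured through their Fc on an anti-human IgG chip, sensorgrams reference-subtracted against surfaces lacking CD40-Fc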
T9 construct: As m1 with W109L and L121P; also called hCD40-M4; not shown: human IgG1 Fc

[11] = target: T10, human CD40 (H76R, W109L, L121P) Fc fusion (human); assay: SPR ProteOn XPR36;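 note: surface plasmon resonance with CD40-Fc fusions captured through their Fc on an anti-human IgG chip, sensorgrams reference-subtracted against surfaces lacking CD40-Fc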
T10 construct: As m1 with H76R, W109L and L121P; also called hCD40-M5; not shown: human IgG1 Fc
T10 chain: T4 chain

[12] = target: T11, wild type cynomolgus monkey CD40 Fc fusion (cynomolgus monkey; human); assay: SPR ProteOn XPR36;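 note: surface plasmon resonance with CD40-Fc fusions captured through their Fc on an anti-human IgG chip, sensorgrams reference-subtracted against surfaces lacking CD40-Fc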
T11 construct: also called wt-cyno-CD40; wt-cCD40; not shown: human IgG1 Fc
T11 chain: T4 chain with A95S, S106L, H142R, L172Q

[13] = target: T12, wild type human CD40 Fc fusion (human, UniProt P25942 21-193); assay: SPR ProteOn XPR36, CD40-Fc captured, dAb analyte
T12 construct: also called wt-hCD40; not shown: human IgG1 Fc

[14] = target: T13, human CD40 (H76R) Fc fusion (human, UniProt P25942 21-193); assay: SPR ProteOn XPR36, CD40-Fc captured, dAb analyte
T13 construct: As m1 with H76R; also called hCD40-M1; not shown: human IgG1 Fc

[15] = target: T14, human CD40 (human, UniProt P25942 21-277); assay: CHO-CD40 cell RBA: competition with biotinylated human IZ-CD40L for human CD40 on CHO cells, fluorescence (FMAT); 0.1% BSA
T14 construct: Native on primary human tonsillar B cells, monocyte-derived dendritic cells and RAMOS cells; stably transfected on CHO-DG44 cells; also called hCD40

[16] = target: T14, human CD40; assay: CHO-CD40 cell RBA: competition with biotinylated human IZ-CD40L for human CD40 on CHO cells, fluorescence (FMAT); 50 µM HSA
[17] = target: T15, cynomolgus serum albumin (cynomolgus, UniProt A2V9Z4 25-608); assay: SPR (BIAcore 3000), CSA amine-coupled on CM5 chip, ILF as analyte, 1:1 Langmuir fit, 25 C
T15 construct: Amine-coupled to a CM5 BIAcore chip; also called CSA; Cyno Serum Albumin
T15 sequence (A2V9Z4 25-608 limits assumed): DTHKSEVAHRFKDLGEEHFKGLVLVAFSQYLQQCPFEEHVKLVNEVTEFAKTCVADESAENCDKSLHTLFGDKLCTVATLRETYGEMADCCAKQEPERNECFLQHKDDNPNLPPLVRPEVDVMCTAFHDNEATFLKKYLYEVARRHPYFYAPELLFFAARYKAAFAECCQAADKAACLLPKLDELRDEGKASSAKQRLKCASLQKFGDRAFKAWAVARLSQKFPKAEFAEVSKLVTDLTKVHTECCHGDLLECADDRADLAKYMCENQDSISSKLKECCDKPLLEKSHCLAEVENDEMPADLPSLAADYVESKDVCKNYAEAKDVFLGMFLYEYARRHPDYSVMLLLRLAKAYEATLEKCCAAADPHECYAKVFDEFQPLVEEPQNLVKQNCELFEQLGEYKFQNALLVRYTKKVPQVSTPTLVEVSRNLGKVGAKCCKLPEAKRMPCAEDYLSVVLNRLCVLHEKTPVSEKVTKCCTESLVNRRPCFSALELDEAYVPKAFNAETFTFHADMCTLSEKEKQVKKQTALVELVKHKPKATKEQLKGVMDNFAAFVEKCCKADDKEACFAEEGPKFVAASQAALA

[18] = target: T16, human serum albumin (human, UniProt P02768 25-609); assay: SPR (BIAcore 3000), HSA amine-coupled on CM5 chip, ILF as analyte, 1:1 Langmuir fit, 25 C
T16 construct: Amine-coupled to a CM5 BIAcore chip; also called HSA
T16 sequence (P02768 25-609 limits assumed): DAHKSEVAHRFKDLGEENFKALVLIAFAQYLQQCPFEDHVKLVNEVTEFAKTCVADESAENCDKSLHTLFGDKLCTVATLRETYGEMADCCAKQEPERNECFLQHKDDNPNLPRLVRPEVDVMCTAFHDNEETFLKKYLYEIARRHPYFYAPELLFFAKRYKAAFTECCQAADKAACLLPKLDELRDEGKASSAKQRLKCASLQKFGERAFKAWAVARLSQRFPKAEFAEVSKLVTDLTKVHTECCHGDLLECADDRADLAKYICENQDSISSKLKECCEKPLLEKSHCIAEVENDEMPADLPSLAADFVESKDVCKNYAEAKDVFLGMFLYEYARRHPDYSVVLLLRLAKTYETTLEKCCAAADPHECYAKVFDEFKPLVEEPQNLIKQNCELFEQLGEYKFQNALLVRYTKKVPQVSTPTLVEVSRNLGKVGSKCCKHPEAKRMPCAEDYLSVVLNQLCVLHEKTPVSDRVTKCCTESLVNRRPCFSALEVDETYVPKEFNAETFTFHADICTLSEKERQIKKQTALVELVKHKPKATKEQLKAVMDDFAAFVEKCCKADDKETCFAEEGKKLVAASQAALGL

B1: BMS3h-56-262 (other)
VH: EVQLLESGGGLVQPGGSLRLSCAASGFTFRDYEMWWVRQAPGKGLERVSAINPQGTRTYYADSVKGRFTISRDNSKNTLYLQMNSLRAEDTAVYYCAKLPQLFHDRGQGTLVTVSS
notes: domain antibody (dAb): single human VH domain
B1 was tested, and the “EC50 ICAM1 cell assay” value [1] was 135 nM, the EC50 [2] was 42 nM and the EC50 [3] was 4 nM.

B2: BMS3h-56-1 (other)
VH: B1 VH with Q101F, L102T, H104E, R106W
notes: Anti-human CD40 domain antibody (dAb), single VH domain
B2: no binding (tested: dAb tested up to 405 nM) [4]; no binding (tested: dAb tested up to 405 nM) [5]; no binding (tested: dAb tested up to 405 nM) [6].

B3: BMS3h-56-261 (other)
VH: B1 VH with Q101F, L102F, H104Q, D105E, R106W
notes: as for B1
With B3 the “EC50 ICAM1 cell assay” value [1] was 42.4 nM, the EC50 [2] was 17 nM and the EC50 [3] was 5.7 nM.

B4: BMS3h-56-2 (other)
VH: B1 VH with Q101F, L102T, H104D, R106W
notes: as for B2
B4: no binding (tested: dAb tested up to 405 nM) [4]; no binding (tested: dAb tested up to 405 nM) [5].

B5: BMS3h-56-265 (other)
VH: B1 VH with H104Q, R106W
notes: as for B1
For B5, the “EC50 ICAM1 cell assay” value [1] was 289 nM, the EC50 [2] was 88 nM and the EC50 [3] was 18.8 nM.

B6: BMS3h-56-266 (other)
VH: B1 VH with Q101F, L102F, D105E, R106W
notes: as for B1
With B6 the “EC50 ICAM1 cell assay” value [1] was 31.9 nM, the EC50 [2] was 27 nM and the EC50 [3] was 3.8 nM.

B7: BMS3h-56-258 (other)
VH: B1 VH with Q101F, L102Y, D105E, R106W
notes: as for B1
With B7 the “EC50 ICAM1 cell assay” value [1] was 23 nM, the EC50 [2] was 15 nM and the EC50 [3] was 5.2 nM.

B8: BMS3h-56-270 (other)
VH: B1 VH with Q101T, H104Q, R106W
notes: as for B1
B8 was tested, and the “EC50 ICAM1 cell assay” value [1] was 93.8 nM, the EC50 [2] was 91 nM and the EC50 [3] was 11.3 nM.

B9: BMS3h-56-269 (other)
VH: B1 VH with Q101F, L102R, H104S
notes: as for B1
For B9, the “EC50 ICAM1 cell assay” value [1] was 34.2 nM, the EC50 [2] was 24 nM and the EC50 [3] was 3.3 nM.

B10: BMS3h-38-2 (other)
VH: EVQLLASGGGLVQPGGSLRLSCAASGFTFEEEEMIWVRQAPGKGLEWVSAISGSGGSTYYADSVKGRFTISRDNSKNTLYLQMNSLRAEDTAVYYCGKEPFRYDYWGQGTLVTVSS
notes: Human domain antibody (dAb), single VH domain
Binder B10 has a Kd [7] of less than 10 nM and a Kd [8] of less than 10 nM.

B11: BMS3h-38-211 (other)
VH: B10 VH with G53R, S54Q
notes: as for B10
B11 gave a Kd [7] of less than 10 nM and a Kd [8] of less than 10 nM.

B12: BMS3h-38-217 (other)
VH: B10 VH with G53R, S54R, G56Y
notes: as for B10
Binder B12 has a Kd [7] of less than 10 nM and a Kd [8] of less than 10 nM.

B13: BMS3h-38-215 (other)
VH: B10 VH with S54L, G56W
notes: as for B10
In the case of B13, the Kd [7] is reported as less than 10 nM and the Kd [8] is reported as less than 10 nM.

B14: BMS3h-37-2 (other)
VH: EVQLLESGGGLVQPGGSLRLSCAASGFTFEWYEMQWVRRAPGKGLEWVSAISGDGYRTYYADSVKGRFTISRDNSKNTLYLQMNSLRAEDTAVYYCAKELGYFDYWGRGTLVTVSS
notes: as for B10
With B14 the Kd [7] was less than 10 nM and the Kd [8] was less than 10 nM.

B15: BMS3h-37-2 (other)
VH: B14 VH
notes: domain antibody (dAb), single VH domain
B15: no binding (tested: 405 nM) [9]; no binding (tested: 405 nM) [10]; no binding (tested: 405 nM) [11]. For the same binder, the binding result [12] was “no binding (tested: 405 nM)”, the Kd [13] was 2 nM and the Kd [14] was 2.6 nM.

B16: BMS3h-37-11 (other)
VH: B14 VH with R39K, W106R
notes: as for B10
With B16 the Kd [7] was less than 10 nM and the Kd [8] was less than 10 nM.

B17: BMS3h-37-11 (other)
VH: B14 VH with R39K, W106R
notes: as for B15
B17: no binding (tested: 405 nM) [9]; no binding (tested: 405 nM) [10]; no binding (tested: 405 nM) [11]. The binding result [12] was “no binding (tested: 405 nM)”, the Kd [13] was 1.9 nM and 2.3 nM and the Kd [14] was 2.4 nM.

B18: DMS0657 BMS3h-56-258-AST-DOM7h-11-87 (bispecific antibody)
chain: EVQLLESGGGLVQPGGSLRLSCAASGFTFRDYEMWWVRQAPGKGLERVSAINPQGTRTYYADSVKGRFTISRDNSKNTLYLQMNSLRAEDTAVYYCAKLPFYFHEWGQGTLVTVSSASTDIQMTQSPSSLSASVGDRVTITCRASRPIGTMLSWYQQKPGKAPKLLILAFSRLQSGVPSRFSGSGSGTDFTLTISSLQPEDFATYYCAQAGTHHTTFGQGTKVEIKR
notes: AlbudAb inline fusion (ILF): an anti-CD40 dAb and an anti-serum-albumin dAb joined by a linker in one polypeptide
For B18, the EC50 [15] was 6.8 nM and the EC50 [16] was 16.6 nM.

B19: DMS0659 DOM7h-11-87-TVAAPS-BMS3h-56-201 (bispecific antibody)
chain: DIQMTQSPSSLSASVGDRVTITCRASRPIGTMLSWYQQKPGKAPKLLILAFSRLQSGVPSRFSGSGSGTDFTLTISSLQPEDFATYYCAQAGTHHTTFGQGTKVEIKRTVAAPSEVQLLESGGGLVQPGGSLRLSCAASGFTFRDYEMWWVRQAPGKGLERVSAINPQGTRTYYADSVKGRFTISRDNSKNTLYLQMNSLRAEDTAVYYCAKLPFYFQEWGQGTLVTVSS
notes: as for B18
With B19 the koff [17] was 0.00237 s⁻¹ and 0.00337 s⁻¹ and 0.0024 s⁻¹, the koff [18] was 0.00117 s⁻¹ and 0.00169 s⁻¹ and 0.0012 s⁻¹ and the EC50 [15] was 7.2 nM. For the same binder, the EC50 [16] was 3.3 nM.

B20: DMS0658 DOM7h-11-3-TVAAPS-BMS3h-56-201 (bispecific antibody)
chain: B19 chain with M32T, A50W, F51N, H95P
notes: as for B18
With B20 the EC50 [15] was 12.2 nM and the EC50 [16] was 9.1 nM.

B21: DMS0660 DOM7h-11-3-TVAAPS-BMS3h-56-258 (bispecific antibody)
chain: B19 chain with M32T, A50W, F51N, H95P, Q218H
notes: as for B18
B21 was tested, and the EC50 [15] was 21.8 nM and the EC50 [16] was 13.1 nM.

B22: DMS0661 DOM7h-11-87-TVAAPS-BMS3h-56-258 (bispecific antibody)
chain: B19 chain with Q218H
notes: as for B18
For B22, the EC50 [15] was 4.1 nM and the EC50 [16] was 5.7 nM.
